The source of these data is paper PMC5062973 (Nucleic Acids Research, 2016).

The experiment addresses T1, M. jannaschii Nop5 (amino acids 1-367) (M. jannaschii, UniProt Q58105 1-367).
T1 sequence (looked up): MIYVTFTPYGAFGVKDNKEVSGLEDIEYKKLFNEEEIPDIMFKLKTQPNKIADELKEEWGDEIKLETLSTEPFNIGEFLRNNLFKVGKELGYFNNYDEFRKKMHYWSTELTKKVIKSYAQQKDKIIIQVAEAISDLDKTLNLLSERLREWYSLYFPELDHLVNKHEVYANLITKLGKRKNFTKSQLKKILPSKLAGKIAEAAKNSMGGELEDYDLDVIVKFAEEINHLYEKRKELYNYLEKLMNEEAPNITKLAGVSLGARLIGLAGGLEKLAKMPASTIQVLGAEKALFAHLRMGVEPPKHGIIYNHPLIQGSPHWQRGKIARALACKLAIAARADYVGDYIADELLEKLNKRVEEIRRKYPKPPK
Briefly: SEC. On the technique in general: In gel filtration, larger molecules generally elute earlier.

B1: M. jannaschii fibrillarin with a N-terminal FLAG-tag (enzyme, UniProt Q58108 1-230, looked up)
chain: MEDIKIKEIFENIYEVDLGDGLKRIATKSIVKGKKVYDEKIIKIGDEEYRIWNPNKSKLAAAIIKGLKVMPIKRDSKILYLGASAGTTPSHVADIADKGIVYAIEYAPRIMRELLDACAERENIIPILGDANKPQEYANIVEKVDVIYEDVAQPNQAEILIKNAKWFLKKGGYGMIAIKARSIDVTKDPKEIFKEQKEILEAGGFKIVDEVDIEPFEKDHVMFVGIWEGK
For the molecule B1, the binding result is listed as “binds”.

B2: M. jannaschii L7Ae (natural protein)
chain: not shown
In the case of B2, the binding result is on record as “binds”.
